Experimental data taken from publication PMC4728127, “A mutation uncouples the tubulin conformational and GTPase cycles, revealing allosteric control of microtubule dynamics” (eLife, 2015).

B1: TOG2(318-560) of Stu2p (domain or fragment, yeast, UniProt P46675 318-560, looked up)
chain: MLPEETILDKLPKDFQERITSSKWKDRVEALEEFWDSVLSQTKKLKSTSQNYSNLLGIYGHIIQKDANIQAVALAAQSVELICDKLKTPGFSKDYVSLVFTPLLDRTKEKKPSVIEAIRKALLTICKYYDPLASSGRNEDMLKDILEHMKHKTPQIRMECTQLFNASMKEEKDGYSTLQRYLKDEVVPIVIQIVNDTQPAIRTIGFESFAILIKIFGMNTFVKTLEHLDNLKRKKIEETVKTL
notes: Stu2p, yeast microtubule polymerase, TOG2 domain, residues 318-560; Plasmid described in Ayaz et al., 2012; 2014; also called Stu2 TOG2 domain
B2: TOG1(1-317) of Stu2p (domain or fragment, yeast, UniProt P46675 1-317, looked up)
chain: MSGEEEVDYTTLPLEERLTYKLWKARLEAYKELNQLFRNSVGDISRDDNIQIYWRDPTLFAQYITDSNVVAQEQAIVALNSLIDAFASSSLKNAHNITLISTWTPLLVEKGLTSSRATTKTQSMSCILSLCGLDTSITQSVELVIPFFEKKLPKLIAAAANCVYELMAAFGLTNVNVQTFLPELLKHVPQLAGHGDRNVRSQTMNLIVEIYKVTGNNSDLLEEILFKKLKPIQVKDLHKLFAKVGDEPSSSKMLFEWEKRELEKKRSQEEEARKRKSILSNDEGEYQIDKDGDTLMGMETDMPPSKQQSGVQIDTFS
notes: Stu2p, yeast microtubule polymerase, TOG1 domain, residues 1-317; Plasmid described in Ayaz et al., 2012; 2014; also called Stu2 TOG1 domain
B3: Bim1-GFP fusion protein (natural protein, yeast, UniProt P40013 1-344, looked up)
chain: MSAGIGESRTELLTWLNGLLNLNYKKIEECGTGAAYCQIMDSIYGDLPMNRVKFNATAEYEFQTNYKILQSCFSRHGIEKTVYVDKLIRCKFQDNLEFLQWLKKHWIRHKDESVYDPDARRKYRPIITNNSATKPRTVSNPTTAKRSSSTGTGSAMSGGLATRHSSLGINGSRKTSVTQGQLVAIQAELTKSQETIGSLNEEIEQYKGTVSTLEIEREFYFNKLRDIEILVHTTQDLINEGVYKFNDETITGHGNGNGGALLRFVKKVESILYATAEGFEMNDGEDELNDKNLGEHGTVPNQGGYANSNGEVNGNEGSNHDVIMQNDEGEVGVSNNLIIDEETF
notes: Bim1p, the yeast EB1 family protein; C-terminal EGFP-tag followed by a Strep-tag II; also called Bim1p; yeast EB1 protein; source: E. coli BL21(DE3), purified (His60 Superflow column, Strep-Tactin Superflow column); not shown: EGFP, C-terminal, kept

Experiments:
[1] = target: T1, wild-type yeast αβ-tubulin (S. cerevisiae, UniProt P09733 1-447; P02557 1-457); experiment: AUC
T1 chain 1: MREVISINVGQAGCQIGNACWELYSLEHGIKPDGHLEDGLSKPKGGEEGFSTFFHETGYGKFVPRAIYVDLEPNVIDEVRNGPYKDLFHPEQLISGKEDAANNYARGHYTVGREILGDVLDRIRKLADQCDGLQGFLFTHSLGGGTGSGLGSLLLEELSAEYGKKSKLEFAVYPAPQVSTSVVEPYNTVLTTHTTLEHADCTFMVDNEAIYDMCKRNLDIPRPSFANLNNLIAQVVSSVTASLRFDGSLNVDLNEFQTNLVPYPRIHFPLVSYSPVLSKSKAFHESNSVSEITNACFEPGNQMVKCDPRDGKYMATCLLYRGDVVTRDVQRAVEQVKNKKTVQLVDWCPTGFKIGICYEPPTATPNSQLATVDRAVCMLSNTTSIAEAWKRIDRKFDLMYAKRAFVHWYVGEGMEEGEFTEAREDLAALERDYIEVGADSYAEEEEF
T1 chain 2: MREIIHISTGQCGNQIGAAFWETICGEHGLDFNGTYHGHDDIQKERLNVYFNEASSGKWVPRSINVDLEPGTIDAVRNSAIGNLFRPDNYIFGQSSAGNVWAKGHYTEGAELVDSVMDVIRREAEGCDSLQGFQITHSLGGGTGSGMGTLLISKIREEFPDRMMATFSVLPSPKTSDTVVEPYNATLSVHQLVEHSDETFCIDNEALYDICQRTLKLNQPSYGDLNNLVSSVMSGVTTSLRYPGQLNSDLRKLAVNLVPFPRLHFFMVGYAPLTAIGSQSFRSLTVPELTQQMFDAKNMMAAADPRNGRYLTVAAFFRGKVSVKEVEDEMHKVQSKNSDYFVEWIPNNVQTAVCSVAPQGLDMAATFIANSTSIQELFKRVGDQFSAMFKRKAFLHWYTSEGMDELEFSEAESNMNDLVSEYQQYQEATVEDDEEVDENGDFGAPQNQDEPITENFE

β:T238A αβ-tubulin [2] = target: β:T238A αβ-tubulin (S. cerevisiae, UniProt P09733 1-447; P02557 1-457, T238A); experiment: AUC
[3] = target: T2, wild-type yeast αβ-tubulin (S. cerevisiae, UniProt P09733 1-447; P02557 1-457); experiment: AUC; sedimentation velocity, 50,000 rpm, 20 °C, absorbance at 229 nm; 0.15 µM T238A αβ-tubulin with 0.015-5 µM TOG1 or TOG2; RB100 (25 mM Tris pH 7.5, 1 mM MgCl2, 1 mM EGTA, 100 mM NaCl) with 20 µM GTP; analysed with SEDFIT and SEDPHAT; details: both partners purified
T2 construct: Tub1p, α-tubulin of S. cerevisiae; Ayaz et al., 2012; 2014); Tub2p, β-tubulin of S. cerevisiae; Unpolymerized heterodimer in the AUC; polymerised into microtubules in the Bim1-GFP, growth and sedimentation assays; also called WT; wild-type αβ-tubulin

β:T238A αβ-tubulin [4] = target: T3, β:T238A αβ-tubulin (S. cerevisiae, UniProt P09733 1-447; P02557 1-457, T238A); experiment: as above; details: both partners purified
T3 construct: Tub1p, α-tubulin of S. cerevisiae; Tub2p, β-tubulin of S. cerevisiae, with T238A made by QuikChange on the wild-type Tub2 expression plasmid; Unpolymerized heterodimer in the AUC; microtubules in the other assays; also called T238A tubulin; β:T238A microtubules

β:C354A αβ-tubulin = target: T4, β:C354A αβ-tubulin (S. cerevisiae, UniProt P09733 1-447; P02557 1-457, C354A); experiment: TIRF microscopy of Bim1-GFP on microtubules; dynamic microtubules grown from sea urchin axonemes in flow chambers with 1 mM GTP; 5 or 50 nM Bim1-GFP in solution; 30 °C; details: both partners purified
T4 construct: Tub1p, α-tubulin of S. cerevisiae; Tub2p, β-tubulin of S. cerevisiae, with C354A (yeast numbering); The making of the C354A plasmid is not described; Used as microtubules; also called β:C354A microtubules

[5] = target: T2, wild-type yeast αβ-tubulin; experiment: as above; details: both partners purified
β:T238A αβ-tubulin [6] = target: T3, β:T238A αβ-tubulin; experiment: as above; details: both partners purified

Binder	Kd [1] [nM]	Kd (β:T238A αβ-tubulin [2]) [nM]	binding result [3]	binding result (β:T238A αβ-tubulin [4])	binding result (β:C354A αβ-tubulin)	binding result [5]	binding result (β:T238A αβ-tubulin [6])
B1	180	160	binds	binds	–	–	–
B2	90	50	binds	binds	–	–	–
B3	–	–	–	–	binds	binds	binds
